B1: aMTD524-P2-1-6: SEQ ID No. 268; his tag-conjugated aMTD524-P2-1 (protein)
chain: GSSHHHHHHSSGLVPRGSHMAVALIVVPALAPEAAAKLIRDSSDQRHFFTLSVKTQSGTKNLRIQ
modifications: His tag; Amino acid Sequence of aMTD524-P2-1-6
B2: aMTD524-P2-1-21: SEQ ID No. 279; contains SH2 (T52-A62), (L69-Q96), (V120-M128) and (A164-N185) (protein)
chain: TGGEANLLLSAGSGSGSGSGSGSGSGSAVALIVVPALAPEAAAKLIRDSSDQRHFFTLSVKTQSGTKNLRIQGGGGSGGGGSGGGGSGGGGSVLKLVHHYMGSGSGSGSAYYIYSGGEKIPLVLSRPLSS
modifications: Amino acid Sequence of aMTD-P2-1-21
B3: aMTD830-P2-1-32B: SEQ ID No. 266; aMTD830-replaced P2-1-32B (protein)
chain: IALVAAPVALVPEAAAKLIRDSSDQRHFFTLSVKTQSGTKNLRIQGGGGSGGGGSGGGGSGGGGSAYYIYSGGEKIPLVLSRPLSSNEAAAKEAAAKEAAAKMAEQSDKDVKYYTLEEIQKHKDSKSTWLILHHKVYDLTKFLEEHPGGEEVLGEQAGGDATENFEDVGHSTDARELSKTYIIGELHPDDRSKIAKPSETL
modifications: Amino acid Sequence of aMTD830-P2-1-32B
notes: aMTD830-replaced P2-1-32B
B4: aMTD524-37: SEQ ID No. 283; truncate from the SH2 domain containing aMTD and SH2 (L69-Q96) (protein)
chain: AVALIVVPALAPEAAAKLIRDSSDQRHFFTLSVKTQSGTKNLRIQCEGGSFSLQSDPRSTQPVPRFDCVLKLVHHYM
modifications: Amino acid Sequence of aMTD524-37
B5: aMTD524-P2-1-23: SEQ ID No. 280; contains SH2 (L69-Q96), SH2 (H125-M128) and SH2 (A164-N185) (protein)
chain: AVALIVVPALAPEAAAKLIRDSSDQRHFFTLSVKTQSGTKNLRIQEAAAKEAAAKEAAAKEAAAKHHYMGSGSGSGSAYYIYSGGEKIPLVLSRPLSSN
modifications: Amino acid Sequence of aMTD-P2-1-23
B6: aMTD524-P2-1-24: SEQ ID No. 281; same regions as aMTD524-P2-1-23 with different linkers (protein)
chain: AVALIVVPALAPEAAAKLIRDSSDQRHFFTLSVKTQSGTKNLRIQGGGGSGGGGSGGGGSGGGGSHHYMGSGSGSGSAYYIYSGGEKIPLVLSRPLSSN
modifications: Amino acid Sequence of aMTD-P2-1-24
notes: same regions as aMTD524-P2-1-23 with different linkers
B7: aMTD830-P2-1B: SEQ ID No. 255; aMTD830-replaced P2-1B, SH2 (L69-Q96) and SDB (protein)
chain: IALVAAPVALVPEAAAKLIRDSSDQRHFFTLSVKTQSGTKNLRIQEAAAKEAAAKEAAAKMAEQSDKDVKYYTLEEIQKHKDSKSTWLILHHKVYDLTKFLEEHPGGEEVLGEQAGGDATENFEDVGHSTDARELSKTYIIGELHPDDRSKIAKPSETL
modifications: Amino acid Sequence of aMTD830-P2-1B
notes: aMTD830-replaced P2-1B, SH2 (L69-Q96) and SDB
B8: aMTD524-36: SEQ ID No. 282; truncate from the SH2 domain containing aMTD and SH2 (L69-Q96) (protein)
chain: AVALIVVPALAPEAAAKGFYWSAVTGGEANLLLSAEPAGTFLIRDSSDQRHFFTLSVKTQSGTKNLRIQCEGGSFSLQSDPRSTQPVPRFDCVLKLVHHYMGSGSGSGSAYYIYSGGEKIPLVLSRPLSSN
modifications: Amino acid Sequence of aMTD524-36
B9: aMTD830-P2-1-24B: SEQ ID No. 261; aMTD830-replaced P2-1-24B (protein)
chain: IALVAAPVALVPEAAAKLIRDSSDQRHFFTLSVKTQSGTKNLRIQGGGGSGGGGSGGGGSGGGGSHHYMGSGSGSGSAYYIYSGGEKIPLVLSRPLSSNEAAAKEAAAKEAAAKMAEQSDKDVKYYTLEEIQKHKDSKSTWLILHHKVYDLTKFLEEHPGGEEVLGEQAGGDATENFEDVGHSTDARELSKTYIIGELHPDDRSKIAKPSETL
modifications: Amino acid Sequence of aMTD830-P2-1-24B
notes: aMTD830-replaced P2-1-24B

Molecular target: T1, Phosphorylated human leptin receptor peptide (QRQPFVK[pY] ATLISNSK), phosphorylated Y985 (Homo sapiens, UniProt P48357)
T1 construct: Phosphorylated human leptin receptor peptide (QRQPFVK[pY] ATLISNSK); purchased Anygen (Gwangju, Korea); host or cells: synthetic peptide
Experiment: Binding affinity to leptin receptor by isothermal titration calorimetry (ITC)
Conditions: leptin receptor peptide phosphorylated at Y985, storage buffer pH 4.0
Method: The binding affinity of cell-permeable truncated SOCS3 SH2 domain recombinant proteins to leptin receptor was analysed using isothermal titration calorimetry (ITC). Phosphorylated human leptin receptor peptide (QRQPFVK[pY] ATLISNSK) used in the experiment was acquired from Anygen (Gwangju, Korea). The binding affinity of aMTD524-P2-1-6 was measured using the following methods. Leptin receptor peptide was dissolved into DMSO and was diluted into storage buffer (50 mM sodium acetate, 50 mM NaCl, pH 4.0) to reach a final peptide concentration of 400 μM and final DMSO concentration of 0.5%. Using dialysis method, purified aMTD524-P2-1-6 was maintained at the identical batch storage buffer, and was diluted to reach the final concentration of 50 μM. Next, binding affinity was measured using ITC (Auto-ITC200).
B1 gave a Kd of 8 µM.

System: leptin resistant mHypoA2/21-SOCS3 cells
Experiment: Biological activity test: overcoming leptin resistance (STAT3 phosphorylation, western blot)
Type: cell-based
Conditions: protein treated 1 hour, then 10 ng/mL mouse leptin 30 minutes
Method: To validate that cell-permeable truncated SOCS3 recombinant protein can overcome leptin resistance, the purified recombinant proteins were treated at leptin resistant cell line mHypoA2/21-SOCS3. mHypoA2/21-SOCS3 was produced by over-expressing SOCS3 at mouse hypothalamic neuron mHypoA2/21, and cultured using DMEM containing 10% FBS and 7 mg/mL geneticin. Cells were seeded at the concentration of 150000 cells/60 mm plate and on the following day the medium was replaced with 7 mg/mL geneticin containing serum free DMEM and starved the cells for the following 16 hours. Purified CP-SD recombinant proteins were diluted into 7 mg/mL geneticin containing serum free DMEM and treated for 1 hour, proteins were removed, and 10 ng/mL mouse leptin was treated for 30 minutes.
The cells were lysed in a lysis buffer (150 mM NaCl, 20 mM Tris, 1% triton-X-100, pH 7.5) containing protease inhibitor and […], incubated for 20 min at 4° C., and centrifuged at 13,000 rpm for 20 min at 4° C. Equal amounts of lysates were separated on 10% SDS-PAGE gels and transferred to a PVDF membrane. The membranes were blocked using TBST buffer 5% bovine serum albumin (BSA) and for western blot analysis incubated with the following antibodies diluted in TBST buffer 5% bovine serum albumin (BSA): anti-phospho-STAT3 (Cell Signaling Technology, USA), anti-STAT3 (Cell Signaling Technology, USA) and anti-myc (Cell Signaling Technology, USA), then HRP conjugated anti-rabbit secondary antibody (Cell Signaling Technology, USA) and anti-mouse secondary antibody (Cell Signaling Technology, USA). The protein bands were detected with ECL solution using luminescent image analyzer (ImageQuant LAS 500, GE Healthcare).
In the case of B2, the “overcoming leptin resistance (STAT3 phosphorylation level)” value (“overcoming leptin resistance” below) is reported as “did not”.
For B3, the “overcoming leptin resistance” value was “overcame leptin resistance”.
In the case of B1, the “overcoming leptin resistance” value is reported as “overcame leptin resistance”.
For B4, the “overcoming leptin resistance” value was “did not overcome leptin resistance”.
With B5 the “overcoming leptin resistance” value was “did not”.
For B6, the “overcoming leptin resistance” value was “overcame leptin resistance”.
For B7, the “overcoming leptin resistance” value was “overcame leptin resistance”.
For B8, the “overcoming leptin resistance” value was “did not overcome leptin resistance”.
For B9, the “overcoming leptin resistance” value was “overcame leptin resistance”.

System: not listed separately
Experiment: Turbidity with thermal stress of 37° C. (absorbance at 350 nm)
Type: physicochemical
Conditions: thermal stress of 37° C. for 3 hours, storage buffer
Method: The recombinant proteins were diluted in their storage buffer or serum free DMEM medium and added into wells of a clear 96 well plate. The plate was incubated at 37° C. and the absorbance of each well was measured at 350 nm every 30 minutes in a microplate reader (Synergy H1, BioTek).
In the case of B1, the “stability (turbidity) in storage buffer” value is reported as “stable”.

Same assay, conditions: thermal stress of 37° C., serum free medium
In the case of B3, the “stability (turbidity) in serum free medium” value is reported as “stable”.
In the case of B6, the “stability (turbidity) in serum free medium” value is reported as “instability”.
With B7 the “stability (turbidity) in serum free medium” value was “stable”.
With B9 the “stability (turbidity) in serum free medium” value was “stable”.

Reference: US20230357339A1, “Development of Cell-Permeable Truncated SOCS3 SH2 Domain (CP-SD) Recombinant Protein for Anti-Obesity Agent” (Cellivery Therapeutics, Inc., priority 2020, published 2023)
